The experiment deals with T1, murine MBP::KSR1 (mouse, UniProt Q61097 1-873).
T1 sequence (looked up): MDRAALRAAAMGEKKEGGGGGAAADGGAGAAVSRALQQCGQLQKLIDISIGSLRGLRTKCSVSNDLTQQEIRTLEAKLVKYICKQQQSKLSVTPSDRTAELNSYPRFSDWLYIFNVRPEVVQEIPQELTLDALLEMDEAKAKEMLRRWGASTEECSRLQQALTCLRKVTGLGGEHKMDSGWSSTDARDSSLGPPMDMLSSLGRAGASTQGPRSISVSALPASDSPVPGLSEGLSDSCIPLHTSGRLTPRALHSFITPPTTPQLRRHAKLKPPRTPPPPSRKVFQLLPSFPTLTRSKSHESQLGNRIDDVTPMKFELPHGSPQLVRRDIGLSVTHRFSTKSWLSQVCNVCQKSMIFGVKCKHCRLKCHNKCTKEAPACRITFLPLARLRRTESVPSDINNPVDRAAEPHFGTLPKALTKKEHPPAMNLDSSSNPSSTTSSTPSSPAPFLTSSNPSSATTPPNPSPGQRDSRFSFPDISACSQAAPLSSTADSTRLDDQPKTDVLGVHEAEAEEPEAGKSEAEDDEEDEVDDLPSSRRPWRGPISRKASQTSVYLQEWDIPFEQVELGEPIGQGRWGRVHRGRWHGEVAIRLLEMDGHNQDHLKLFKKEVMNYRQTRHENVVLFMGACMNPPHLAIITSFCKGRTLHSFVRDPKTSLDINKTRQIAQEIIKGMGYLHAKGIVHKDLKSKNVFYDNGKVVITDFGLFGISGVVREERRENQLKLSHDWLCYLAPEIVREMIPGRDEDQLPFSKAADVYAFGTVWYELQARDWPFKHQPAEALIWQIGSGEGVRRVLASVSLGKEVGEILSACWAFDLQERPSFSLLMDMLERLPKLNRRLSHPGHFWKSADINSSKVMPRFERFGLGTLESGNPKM
Briefly: pull-down.

B1: GST::NDK-1::His6 (natural protein, C. elegans, UniProt Q93576 1-153, looked up)
chain: MSNTERTFIAIKPDGVHRGLVGKIIARFEERGYKLVALKQMTASKAHLEVHYQDLKDKPFFPSLIEYMSSGPVVAMVWQGLDVVKQGRSMLGATNPLASAPGTIRGDFCIQTGRNICHGSDAVDSANREIAHWFKQEEINDYASPFINSWVYE
For B1, the binding result is “binds”.

Values taken from PMC3737725 (Development (Cambridge, England), 2013).
